How the values were obtained:
Porcine trypsin = biological target: T1, Porcine trypsin (Sus scrofa, UniProt P00761); assay: Inhibition of serine proteinases: trypsin, peptidyl nitroanilide substrate; format: biochemical; conditions: 30 minutes incubation, substrate 0.6 mM, residual activity at 405 nm
T1 construct: purchased Novo Nordisk A/S
Procedure: (§1) The variants were purified from the yeast culture medium as described in example 1. The concentration of KFN 1651 was determined from the absorbance at 214 nm using aprotinin as a standard. Porcine trypsin was obtained from Novo Nordisk A/S. Human plasmin was obtained from Kabi (Stockholm, Sweden). Human neutrophil cathepsin G and elastase were purified from extracts of PMNs according to the method described by Baugh and Travis, Biochemistry 15, 1976, 836-843.
(§2) Peptidyl nitroanilide substrates S2251 ans S2586 were obtained from Kabi (Stockholm, Sweden), and S7388 and M 4765 were obtained from Sigma Chemical Co. (St. Louis, Mo., USA).
(§3) The serine proteinases were incubated with various concentrations of KFN 1900 or 1901 for 30 minutes. Substrate was then added (0.6 mM) and residual proteinase activity was measured at 405 nm.

Human plasmin = biological target: T2, Human plasmin (Homo sapiens, UniProt P00747); assay: Inhibition of serine proteinases: plasmin, peptidyl nitroanilide substrate; format: biochemical; conditions: at 1 μM; 30 minutes incubation, substrate 0.6 mM, 405 nm
T2 construct: purchased Kabi (Stockholm, Sweden)
Procedure: as §1, §2, §3

[1] = biological target: T3, Human neutrophil elastase (Homo sapiens, UniProt P08246); assay: Inhibition of serine proteinases: neutrophil elastase, peptidyl nitroanilide substrate; format: biochemical; conditions: 30 minutes incubation, substrate 0.6 mM, 405 nm
T3 construct: Human neutrophil cathepsin G and elastase were purified from extracts of PMNs; from tissue; host or cells: human polymorphonuclear leukocytes (PMNs)
T3 sequence (P08246 30-267): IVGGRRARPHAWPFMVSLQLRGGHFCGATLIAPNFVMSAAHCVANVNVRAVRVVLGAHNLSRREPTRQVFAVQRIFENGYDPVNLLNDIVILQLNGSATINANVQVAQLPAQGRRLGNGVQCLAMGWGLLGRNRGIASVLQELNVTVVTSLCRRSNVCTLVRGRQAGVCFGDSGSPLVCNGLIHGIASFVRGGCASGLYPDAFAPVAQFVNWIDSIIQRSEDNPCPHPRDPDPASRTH
Procedure: as §1, §2, §3

[2] = biological target: T4, Human neutrophil cathepsin G (Homo sapiens, UniProt P08311); assay: Inhibition of serine proteinases: cathepsin G, peptidyl nitroanilide substrate; format: biochemical; conditions: 30 minutes incubation, substrate 0.6 mM, 405 nm
T4 construct: Human neutrophil cathepsin G and elastase were purified from extracts of PMNs; from tissue; host or cells: human polymorphonuclear leukocytes (PMNs)
T4 sequence (P08311 21-255): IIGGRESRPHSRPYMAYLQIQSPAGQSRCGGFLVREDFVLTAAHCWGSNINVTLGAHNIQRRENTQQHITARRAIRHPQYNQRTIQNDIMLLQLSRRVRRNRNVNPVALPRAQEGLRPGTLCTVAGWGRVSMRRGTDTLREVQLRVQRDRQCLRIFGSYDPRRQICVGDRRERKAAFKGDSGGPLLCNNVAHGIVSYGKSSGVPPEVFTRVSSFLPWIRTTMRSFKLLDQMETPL
Procedure: as §1, §2, §3

[3] = biological target: Porcine trypsin (porcine) (UniProt P00761); assay: inhibition of the proteinase, 30 minutes preincubation, residual activity on a peptidyl nitroanilide substrate at 405 nm
collagenase = conditions: cited from earlier work

T1 sequence (P00761 9-231): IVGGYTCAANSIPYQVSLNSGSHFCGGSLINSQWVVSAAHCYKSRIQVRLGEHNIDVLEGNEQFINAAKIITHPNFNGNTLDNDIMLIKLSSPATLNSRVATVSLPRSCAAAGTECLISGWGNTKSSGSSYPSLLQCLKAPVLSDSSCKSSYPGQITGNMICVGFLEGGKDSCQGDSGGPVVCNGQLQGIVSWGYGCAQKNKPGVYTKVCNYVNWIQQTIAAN
T2 sequence (P00747 581-810 limits assumed): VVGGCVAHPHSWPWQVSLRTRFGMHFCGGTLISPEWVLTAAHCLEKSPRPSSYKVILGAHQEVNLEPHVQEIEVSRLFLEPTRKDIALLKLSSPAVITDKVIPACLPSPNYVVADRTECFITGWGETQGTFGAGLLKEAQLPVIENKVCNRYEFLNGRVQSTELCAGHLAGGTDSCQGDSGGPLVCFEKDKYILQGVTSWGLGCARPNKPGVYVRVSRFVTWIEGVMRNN
T2 sequence (P00747 97-580 partner limits assumed): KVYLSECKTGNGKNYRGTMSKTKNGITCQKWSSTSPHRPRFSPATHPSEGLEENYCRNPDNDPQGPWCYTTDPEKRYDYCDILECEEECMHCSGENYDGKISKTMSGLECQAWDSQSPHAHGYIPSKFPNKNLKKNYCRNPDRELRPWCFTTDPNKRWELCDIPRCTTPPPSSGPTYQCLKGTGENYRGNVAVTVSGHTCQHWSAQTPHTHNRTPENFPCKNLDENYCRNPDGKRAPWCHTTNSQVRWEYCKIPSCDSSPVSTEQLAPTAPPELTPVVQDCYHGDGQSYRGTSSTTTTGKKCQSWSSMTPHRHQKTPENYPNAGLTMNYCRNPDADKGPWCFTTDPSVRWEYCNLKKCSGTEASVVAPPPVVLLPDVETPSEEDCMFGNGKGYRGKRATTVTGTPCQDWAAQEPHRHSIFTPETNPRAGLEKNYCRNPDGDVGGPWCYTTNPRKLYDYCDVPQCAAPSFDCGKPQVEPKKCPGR

Ki (Porcine trypsin) [nM] | inhibition of plasmin (Human plasmin) | inhibition of neutrophil elastase [1] | inhibition of cathepsin G [2] | Ki [3] [nM] | Substance | inhibitory effect on collagenase (collagenase)
50 | weak inhibitors | did not inhibit | did not inhibit |  | KFN 1900: [R15K, D16A] analog of the human α3(VI) collagen Kunitz-type protease inhibitor domain, produced from yeast strain KFN-1900 | 
355 | weak inhibitors | did not inhibit | did not inhibit |  | KFN 1901: [D16A] analog of the human α3(VI) collagen Kunitz-type protease inhibitor domain, produced from yeast strain KFN-1901 | 
 |  |  |  | 355 | [D16A]-α3(VI) Kunitz-type domain analog (from UniProt P12111) | 
 |  |  |  | 50 | [R15K, D16A]-α3(VI) Kunitz-type domain analog (from UniProt P12111) | 
 |  |  |  |  | aprotinin(1-58, Val15) | inhibitory effect

From US5629176A, “Human Kunitz-type protease inhibitor variants” (Novo Nordisk A/S, priority 1994, dated 1997)
